Assay results published in patent US11819556B2, “Stabilized compositions of radionuclides and uses thereof” (RayzeBio, Inc., priority 2021, dated 2023).
Marks after values point to notes of the source that are not given here.

Columns and labels:
Format in all cases: physicochemical
[1] = DTPA concentration optimization: radio-TLC purity; conditions: 20 μCi/ml, 100 mM sodium ascorbate pH 5.80, 25° C.
Method: (§1) The mixture was kept at room temperature (25° C.). At different time points, radioactive components of the formulated dose were measured by radio-TLC as described in the table below: […]

[2] = Sodium ascorbate concentration optimization: radio-TLC purity; conditions: 25° C.
Method: as §1

[3] = Dextran ratio optimization: radio-TLC purity; conditions: 25 μCi/ml
Method: as §1

Substance: (2,2′,2″-(10-(2-4(R)-1-(((4R,7S,10S,13R,16S,19R)-13-((1H-indol-3-yl)methyl)-10-(4-aminobutyl)-4-(((1S,2R)-1-carboxy-2-hydroxypropyl)carbamoyl)-16-(4-hydroxybenzyl)-7-((R)-1-hydroxyethyl)-6,9,12,15,18-pentaoxo-1,2-dithia-5,8,11,14,17-pentaazacycloicosan-19-yl)amino)-1-oxo-3-phenylpropan-2-yl)amino)-2-oxoethyl)-1,4,7,10-tetraazacyclododecane-1,4,7-triyl)triacetate; actinium-225(3+)) [[^225Ac]Ac-DOTA-TATE]
- Percentage of ^225Ac present in [^225Ac]Ac-DOTA-TATE ([1]; DTPA 0.8 mg/ml, 48 hours): 96.57%
- Percentage of ^225Ac present in [^225Ac]Ac-DOTA-TATE ([1]; DTPA 0.8 mg/ml, 72 hours): 93.11%
- Percentage of ^225Ac present in [^225Ac]Ac-DOTA-TATE ([1]; DTPA 1.0 mg/ml, 0 hour): 98.25%
- Percentage of ^225Ac present in [^225Ac]Ac-DOTA-TATE ([1]; DTPA 1.0 mg/ml, 24 hours): 97.37%
- Percentage of ^225Ac present in [^225Ac]Ac-DOTA-TATE ([1]; DTPA 1.0 mg/ml, 48 hours): 96.14%
- Percentage of ^225Ac present in [^225Ac]Ac-DOTA-TATE ([1]; DTPA 1.0 mg/ml, 72 hours): 94.14%
- Percentage of ^225Ac present in [^225Ac]Ac-DOTA-TATE ([2]; sodium ascorbate 1 mM, 0 hour, Radioactivity concentration at 1 mCi/ml): 99.76%
- Percentage of ^225Ac present in [^225Ac]Ac-DOTA-TATE ([2]; sodium ascorbate 1 mM, 24 hours, Radioactivity concentration at 1 mCi/ml): 91.11%
- Percentage of ^225Ac present in [^225Ac]Ac-DOTA-TATE ([2]; sodium ascorbate 1 mM, 48 hours, Radioactivity concentration at 1 mCi/ml): 52.06%
- Percentage of ^225Ac present in [^225Ac]Ac-DOTA-TATE ([2]; sodium ascorbate 10 mM, 0 hour, Radioactivity concentration at 1 mCi/ml): 99.78%
- Percentage of ^225Ac present in [^225Ac]Ac-DOTA-TATE ([2]; sodium ascorbate 10 mM, 24 hours, Radioactivity concentration at 1 mCi/ml): 92.21%
- Percentage of ^225Ac present in [^225Ac]Ac-DOTA-TATE ([2]; sodium ascorbate 10 mM, 48 hours, Radioactivity concentration at 1 mCi/ml): 86.11%
- Percentage of ^225Ac present in [^225Ac]Ac-DOTA-TATE ([2]; sodium ascorbate 100 mM, 0 hour, 0.02 mCi/ml, 0.05 mg/ml DTPA): 99.15%
- Percentage of ^225Ac present in [^225Ac]Ac-DOTA-TATE ([2]; sodium ascorbate 100 mM, 24 hours, 0.02 mCi/ml, 0.05 mg/ml DTPA): 98.76%
- Percentage of ^225Ac present in [^225Ac]Ac-DOTA-TATE ([2]; sodium ascorbate 100 mM, 48 hours, 0.02 mCi/ml, 0.05 mg/ml DTPA): 96.94%
- Percentage of ^225Ac present in [^225Ac]Ac-DOTA-TATE ([2]; sodium ascorbate 100 mM, 72 hours, 0.02 mCi/ml, 0.05 mg/ml DTPA): 96.16%
- Percentage of ^225Ac present in [^225Ac]Ac-DOTA-TATE ([2]; sodium ascorbate 100 mM, 96 hours, 0.02 mCi/ml, 0.05 mg/ml DTPA): 95.84%
- Percentage of ^225Ac present in [^225Ac]Ac-DOTA-TATE ([2]; sodium ascorbate 100 mM, 120 hours, 0.02 mCi/ml, 0.05 mg/ml DTPA): 95.44%
- Percentage of ^225Ac present in [^225Ac]Ac-DOTA-TATE ([2]; sodium ascorbate 100 mM, 144 hours, 0.02 mCi/ml, 0.05 mg/ml DTPA): 95.34%
- Percentage of ^225Ac present in [^225Ac]Ac-DOTA-TATE ([2]; sodium ascorbate 200 mM, 0 hour, 0.02 mCi/ml, 0.05 mg/ml DTPA): 99.22%
- Percentage of ^225Ac present in [^225Ac]Ac-DOTA-TATE ([2]; sodium ascorbate 200 mM, 24 hours, 0.02 mCi/ml, 0.05 mg/ml DTPA): 98.16%
- Percentage of ^225Ac present in [^225Ac]Ac-DOTA-TATE ([2]; sodium ascorbate 200 mM, 48 hours, 0.02 mCi/ml, 0.05 mg/ml DTPA): 97.12%
- Percentage of ^225Ac present in [^225Ac]Ac-DOTA-TATE ([2]; sodium ascorbate 200 mM, 72 hours, 0.02 mCi/ml, 0.05 mg/ml DTPA): 95.63%
- Percentage of ^225Ac present in [^225Ac]Ac-DOTA-TATE ([2]; sodium ascorbate 200 mM, 96 hours, 0.02 mCi/ml, 0.05 mg/ml DTPA): 95.51%
- Percentage of ^225Ac present in [^225Ac]Ac-DOTA-TATE ([2]; sodium ascorbate 200 mM, 120 hours, 0.02 mCi/ml, 0.05 mg/ml DTPA): 94.38%
- Percentage of ^225Ac present in [^225Ac]Ac-DOTA-TATE ([2]; sodium ascorbate 200 mM, 144 hours, 0.02 mCi/ml, 0.05 mg/ml DTPA): 91.27%
- Percentage of ^225Ac present in [^225Ac]Ac-DOTA-TATE ([3]; Dextran 0% w/w, 0 hour, 100 mM sodium ascorbate, 0.05 mg/ml DTPA, saline, pH 5.80, 25° C.): 99.90%
- Percentage of ^225Ac present in [^225Ac]Ac-DOTA-TATE ([3]; Dextran 0% w/w, 24 hours, 100 mM sodium ascorbate, 0.05 mg/ml DTPA, saline, pH 5.80, 25° C.): 99.42%
- Percentage of ^225Ac present in [^225Ac]Ac-DOTA-TATE ([3]; Dextran 0% w/w, 48 hours, 100 mM sodium ascorbate, 0.05 mg/ml DTPA, saline, pH 5.80, 25° C.): 98.73%
- Percentage of ^225Ac present in [^225Ac]Ac-DOTA-TATE ([3]; Dextran 0% w/w, 72 hours, 100 mM sodium ascorbate, 0.05 mg/ml DTPA, saline, pH 5.80, 25° C.): 97.77%
- Percentage of ^225Ac present in [^225Ac]Ac-DOTA-TATE ([3]; Dextran 0% w/w, 96 hours, 100 mM sodium ascorbate, 0.05 mg/ml DTPA, saline, pH 5.80, 25° C.): 97.13%
- Percentage of ^225Ac present in [^225Ac]Ac-DOTA-TATE ([3]; Dextran 0% w/w, 120 hours, non-homogeneous sampling, 100 mM sodium ascorbate, 0.05 mg/ml DTPA, saline, pH 5.80, 25° C.): 98.09* %
- Percentage of ^225Ac present in [^225Ac]Ac-DOTA-TATE ([3]; Dextran 0% w/w, 144 hours, 100 mM sodium ascorbate, 0.05 mg/ml DTPA, saline, pH 5.80, 25° C.): 94.64%
- Percentage of ^225Ac present in [^225Ac]Ac-DOTA-TATE ([3]; Dextran 3% w/w, 0 hour, 100 mM sodium ascorbate, 0.05 mg/ml DTPA, saline, pH 5.80, 25° C.): 99.86%
- Percentage of ^225Ac present in [^225Ac]Ac-DOTA-TATE ([3]; Dextran 3% w/w, 24 hours, 100 mM sodium ascorbate, 0.05 mg/ml DTPA, saline, pH 5.80, 25° C.): 98.62%
- Percentage of ^225Ac present in [^225Ac]Ac-DOTA-TATE ([3]; Dextran 3% w/w, 48 hours, 100 mM sodium ascorbate, 0.05 mg/ml DTPA, saline, pH 5.80, 25° C.): 98.48%
- Percentage of ^225Ac present in [^225Ac]Ac-DOTA-TATE ([3]; Dextran 3% w/w, 72 hours, 100 mM sodium ascorbate, 0.05 mg/ml DTPA, saline, pH 5.80, 25° C.): 97.91%
- Percentage of ^225Ac present in [^225Ac]Ac-DOTA-TATE ([3]; Dextran 3% w/w, 96 hours, 100 mM sodium ascorbate, 0.05 mg/ml DTPA, saline, pH 5.80, 25° C.): 96.48%
- Percentage of ^225Ac present in [^225Ac]Ac-DOTA-TATE ([3]; Dextran 3% w/w, 120 hours, 100 mM sodium ascorbate, 0.05 mg/ml DTPA, saline, pH 5.80, 25° C.): 96.67%
- Percentage of ^225Ac present in [^225Ac]Ac-DOTA-TATE ([3]; Dextran 3% w/w, 144 hours, 100 mM sodium ascorbate, 0.05 mg/ml DTPA, saline, pH 5.80, 25° C.): 95.77%
- Percentage of ^225Ac present in [^225Ac]Ac-DOTA-TATE ([3]; Dextran 6% w/w, 0 hour, 100 mM sodium ascorbate, 0.05 mg/ml DTPA, saline, pH 5.80, 25° C.): 100%
- Percentage of ^225Ac present in [^225Ac]Ac-DOTA-TATE ([3]; Dextran 6% w/w, 24 hours, 100 mM sodium ascorbate, 0.05 mg/ml DTPA, saline, pH 5.80, 25° C.): 99.08%
- Percentage of ^225Ac present in [^225Ac]Ac-DOTA-TATE ([3]; Dextran 6% w/w, 48 hours, 100 mM sodium ascorbate, 0.05 mg/ml DTPA, saline, pH 5.80, 25° C.): 98.83%
- Percentage of ^225Ac present in [^225Ac]Ac-DOTA-TATE ([3]; Dextran 6% w/w, 72 hours, 100 mM sodium ascorbate, 0.05 mg/ml DTPA, saline, pH 5.80, 25° C.): 98.29%
- Percentage of ^225Ac present in [^225Ac]Ac-DOTA-TATE ([3]; Dextran 6% w/w, 96 hours, 100 mM sodium ascorbate, 0.05 mg/ml DTPA, saline, pH 5.80, 25° C.): 96.99%
- Percentage of ^225Ac present in [^225Ac]Ac-DOTA-TATE ([3]; Dextran 6% w/w, 120 hours, 100 mM sodium ascorbate, 0.05 mg/ml DTPA, saline, pH 5.80, 25° C.): 97.00%
- Percentage of ^225Ac present in [^225Ac]Ac-DOTA-TATE ([3]; Dextran 6% w/w, 144 hours, 100 mM sodium ascorbate, 0.05 mg/ml DTPA, saline, pH 5.80, 25° C.): 96.41%
- Percentage of ^225Ac present in [^225Ac]Ac-DOTA-TATE ([3]; Dextran 10% w/w, no L-ascorbate, 0 hour, 25° C.): 100%
- Percentage of ^225Ac present in [^225Ac]Ac-DOTA-TATE ([3]; Dextran 10% w/w, no L-ascorbate, 24 hours, 25° C.): 95.38%
- Percentage of ^225Ac present in [^225Ac]Ac-DOTA-TATE ([3]; Dextran 10% w/w, no L-ascorbate, 48 hours, 25° C.): 93.36%
- Percentage of ^225Ac present in [^225Ac]Ac-DOTA-TATE ([3]; Dextran 10% w/w, no L-ascorbate, 72 hours, 25° C.): 89.11%
- Percentage of ^225Ac present in [^225Ac]Ac-DOTA-TATE ([3]; Dextran 10% w/w, no L-ascorbate, 96 hours, 25° C.): 87.20%
- Percentage of ^225Ac present in [^225Ac]Ac-DOTA-TATE ([3]; Dextran 10% w/w, 0 hour, 100 mM sodium ascorbate, 0.05 mg/ml DTPA, saline, pH 5.80, 25° C.): 99.67%
- Percentage of ^225Ac present in [^225Ac]Ac-DOTA-TATE ([3]; Dextran 10% w/w, 24 hours, 100 mM sodium ascorbate, 0.05 mg/ml DTPA, saline, pH 5.80, 25° C.): 99.02%
- Percentage of ^225Ac present in [^225Ac]Ac-DOTA-TATE ([3]; Dextran 10% w/w, 48 hours, 100 mM sodium ascorbate, 0.05 mg/ml DTPA, saline, pH 5.80, 25° C.): 98.75%
- Percentage of ^225Ac present in [^225Ac]Ac-DOTA-TATE ([3]; Dextran 10% w/w, 72 hours, 100 mM sodium ascorbate, 0.05 mg/ml DTPA, saline, pH 5.80, 25° C.): 97.83%
- Percentage of ^225Ac present in [^225Ac]Ac-DOTA-TATE ([3]; Dextran 10% w/w, 96 hours, 100 mM sodium ascorbate, 0.05 mg/ml DTPA, saline, pH 5.80, 25° C.): 96.42%
- Percentage of ^225Ac present in [^225Ac]Ac-DOTA-TATE ([3]; Dextran 10% w/w, 120 hours, 100 mM sodium ascorbate, 0.05 mg/ml DTPA, saline, pH 5.80, 25° C.): 96.58%
- Percentage of ^225Ac present in [^225Ac]Ac-DOTA-TATE ([3]; Dextran 10% w/w, 144 hours, 100 mM sodium ascorbate, 0.05 mg/ml DTPA, saline, pH 5.80, 25° C.): 95.37%
